Test results taken from PMC2680067 (European journal of human genetics : EJHG, 2008).

Molecular target: the molecule itself
Assay: cross-linking

B1: myc-EGFP-Trim50 (full-length mouse Trim50), expressed in U2OS cells (natural protein)
chain: MAWRLTVPELQDQLQCPICLEVFKEPLMLQCGHSYCKDCLDNLSQHLDSELCCPVCRQSVDCSSSPPNVSLARVIDALRLPGDIEPTVCVHHRNPLSLFCEKDQEFICGLCGLLGSHQHHRVTPVSTVYSRMKEELAGRISELKEEHRNVEEHIGKLVNNRTRIINESDVFSWVIRREFQELHHLVDEEKARCLEGLEGHTRGLVASLDMQLEQAQGTQERLAQAEQVLEQFGNESHHEFIRFHSVASRAEVQQARPLEGVFSPISFKPALHQADIKLTVWKRLFRKVLPAPASLKLDPATAHPLLELSKGNTVVHCGLLAQRRASQPERFDYSTCVLASKGFSWGRHYWEVVVGSKSDWRLGVIKGTASRKGKLNKSPEHGVWLIGLKEGRVYEAFGCPRLPLPVAGHPHRIGVYLHYEQGELTFFDADRPDDLRTLYTFQADFQGKLYPILDTCWHERGSNSLPMVLPPPSGPGHFTLGQV
stoichiometry N: 3
